Experimental data as given in PMC3553985 (Nucleic Acids Research, 2012).

Biological target: T1, γ subunit of Sulfolobus solfataricus aIF2 (Ss-aIF2γ), native version (S. solfataricus, UniProt Q980A5 2-415)
T1 sequence: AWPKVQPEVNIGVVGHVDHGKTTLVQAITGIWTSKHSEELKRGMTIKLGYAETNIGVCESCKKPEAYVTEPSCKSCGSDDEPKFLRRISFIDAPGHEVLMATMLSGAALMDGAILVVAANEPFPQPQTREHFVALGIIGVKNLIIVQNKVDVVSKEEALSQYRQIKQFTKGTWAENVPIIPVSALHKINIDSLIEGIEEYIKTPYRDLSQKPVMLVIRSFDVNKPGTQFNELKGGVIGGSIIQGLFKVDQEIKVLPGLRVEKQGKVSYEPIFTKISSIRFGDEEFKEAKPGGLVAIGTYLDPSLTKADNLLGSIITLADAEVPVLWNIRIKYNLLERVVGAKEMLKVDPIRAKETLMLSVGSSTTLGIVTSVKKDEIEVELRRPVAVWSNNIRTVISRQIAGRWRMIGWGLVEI
Assay: SEC

| Binder | binding result |
| --- | --- |
| yeast αD3ΔC274, His-tag removed (SAXS sample) (domain or fragment) TPQAVKIRADVEVSCFSYEGIDAIKDALKSAEDMSTEQMQVKVKLVAAPLYVLTTQALDKQKGIEQLESAIEKITEVITKYGGVCNITMPPKAVTAT | binds |
| yeast eIF2αΔC274, His-tag removed (SAXS sample) (domain or fragment) MSTSHCRFYENKYPEIDDIVMVNVQQIAEMGAYVKLLEYDNIEGMILLSELSRRRIRSIQKLIRVGKNDVAVVLRVDKEKGYIDLSKRRVSSEDIIKCEEKYQKSKTVHSILRYCAEKFQIPLEELYKTIAWPLSRKFGHAYEAFKLSIIDETVWEGIEPPSKDVLDELKNYISKRLTPQAVKIRADVEVSCFSYEGIDAIKDALKSAEDMSTEQMQVKVKLVAAPLYVLTTQALDKQKGIEQLESAIEKITEVITKYGGVCNITMPPKAVTAT | binds |
